Experimental data reported in publication PMC8263732, “M1BP cooperates with CP190 to activate transcription at TAD borders and promote chromatin insulator activity” (Nature Communications, 2021).

Assays:
Assay in all cases: co-IP; 500 ug nuclear extract of 0-24 h Drosophila embryos incubated overnight at 4 C with antiserum (anti-Su(Hw), anti-CP190, anti-Mod(mdg4)67.2 or anti-M1BP; normal serum as control) cross-linked to Protein A or G Sepharose; washed twice with HBSMT and once with HBSM; western blotting; efficiency as percent of total input protein
Conditions in all cases: partners not purified
[1] = molecular target: T1, Motif 1 Binding Protein (M1BP) (Drosophila (endogenous in 0-24 h Oregon …, UniProt Q9VHM3 1-418))
T1 construct: endogenous protein in embryonic nuclear extract; source: endogenous, nuclear extract of 0-24 h Drosophila embryos
T1 sequence (looked up): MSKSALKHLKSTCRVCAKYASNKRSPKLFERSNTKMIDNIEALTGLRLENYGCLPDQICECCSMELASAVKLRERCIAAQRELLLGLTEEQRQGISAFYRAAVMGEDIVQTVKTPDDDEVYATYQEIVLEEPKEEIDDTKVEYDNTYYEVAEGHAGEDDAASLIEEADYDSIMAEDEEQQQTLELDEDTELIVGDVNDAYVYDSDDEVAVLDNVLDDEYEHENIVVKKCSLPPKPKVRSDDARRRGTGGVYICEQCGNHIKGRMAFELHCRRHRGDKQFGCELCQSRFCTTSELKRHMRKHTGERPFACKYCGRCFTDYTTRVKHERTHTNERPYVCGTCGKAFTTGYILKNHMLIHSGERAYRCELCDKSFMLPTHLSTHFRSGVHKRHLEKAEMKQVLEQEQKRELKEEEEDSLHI

[2] = molecular target: T2, Centrosomal protein 190 (CP190) (Drosophila (endogenous in 0-24 h Oregon …, UniProt Q24478 1-1096))
T2 construct: Centrosomal protein 190 (CP190), universal insulator protein of Drosophila; endogenous protein in embryonic nuclear extract; source: endogenous, nuclear extract of 0-24 h Drosophila embryos
T2 sequence (looked up): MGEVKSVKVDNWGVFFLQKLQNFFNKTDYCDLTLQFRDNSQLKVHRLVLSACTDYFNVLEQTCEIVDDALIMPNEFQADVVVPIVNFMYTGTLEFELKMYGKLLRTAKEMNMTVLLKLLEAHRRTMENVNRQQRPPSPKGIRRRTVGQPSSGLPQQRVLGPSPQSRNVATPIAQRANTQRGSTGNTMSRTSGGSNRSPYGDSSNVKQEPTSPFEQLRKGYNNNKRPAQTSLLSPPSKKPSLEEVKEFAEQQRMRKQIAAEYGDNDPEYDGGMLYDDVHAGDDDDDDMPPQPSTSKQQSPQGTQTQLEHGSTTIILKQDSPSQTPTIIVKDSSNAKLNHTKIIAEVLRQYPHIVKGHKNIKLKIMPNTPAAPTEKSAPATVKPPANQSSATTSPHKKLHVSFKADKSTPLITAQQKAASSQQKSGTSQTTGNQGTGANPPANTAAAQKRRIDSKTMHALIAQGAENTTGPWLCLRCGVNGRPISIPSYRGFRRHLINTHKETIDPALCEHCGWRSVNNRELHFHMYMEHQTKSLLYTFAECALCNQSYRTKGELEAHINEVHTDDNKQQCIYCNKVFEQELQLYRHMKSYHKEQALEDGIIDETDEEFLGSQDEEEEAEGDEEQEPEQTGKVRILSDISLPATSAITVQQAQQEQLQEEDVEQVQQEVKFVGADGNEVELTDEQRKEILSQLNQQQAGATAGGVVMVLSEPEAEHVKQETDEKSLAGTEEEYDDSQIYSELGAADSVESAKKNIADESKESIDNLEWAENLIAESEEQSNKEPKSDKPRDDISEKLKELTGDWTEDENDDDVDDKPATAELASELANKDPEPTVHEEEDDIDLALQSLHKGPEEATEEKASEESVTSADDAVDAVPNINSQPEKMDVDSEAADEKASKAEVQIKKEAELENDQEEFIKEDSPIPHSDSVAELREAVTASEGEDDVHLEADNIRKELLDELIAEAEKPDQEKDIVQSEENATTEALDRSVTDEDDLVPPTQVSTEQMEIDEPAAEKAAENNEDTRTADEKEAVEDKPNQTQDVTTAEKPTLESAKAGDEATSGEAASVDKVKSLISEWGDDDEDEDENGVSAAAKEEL

[3] = molecular target: T3, Modifier of mdg4 [Mod(mdg4)] 67.2 kDa isoform [Mod(mdg4)67.2] (Drosophila (endogenous in 0-24 h Oregon …, UniProt Q86B87 1-610))
T3 construct: Modifier of mdg4, the 67.2 kDa isoform, Drosophila; The gene has many isoforms; the 67.2 kDa isoform is meant; to be checked; source: endogenous, nuclear extract of 0-24 h Drosophila embryos
T3 sequence (looked up): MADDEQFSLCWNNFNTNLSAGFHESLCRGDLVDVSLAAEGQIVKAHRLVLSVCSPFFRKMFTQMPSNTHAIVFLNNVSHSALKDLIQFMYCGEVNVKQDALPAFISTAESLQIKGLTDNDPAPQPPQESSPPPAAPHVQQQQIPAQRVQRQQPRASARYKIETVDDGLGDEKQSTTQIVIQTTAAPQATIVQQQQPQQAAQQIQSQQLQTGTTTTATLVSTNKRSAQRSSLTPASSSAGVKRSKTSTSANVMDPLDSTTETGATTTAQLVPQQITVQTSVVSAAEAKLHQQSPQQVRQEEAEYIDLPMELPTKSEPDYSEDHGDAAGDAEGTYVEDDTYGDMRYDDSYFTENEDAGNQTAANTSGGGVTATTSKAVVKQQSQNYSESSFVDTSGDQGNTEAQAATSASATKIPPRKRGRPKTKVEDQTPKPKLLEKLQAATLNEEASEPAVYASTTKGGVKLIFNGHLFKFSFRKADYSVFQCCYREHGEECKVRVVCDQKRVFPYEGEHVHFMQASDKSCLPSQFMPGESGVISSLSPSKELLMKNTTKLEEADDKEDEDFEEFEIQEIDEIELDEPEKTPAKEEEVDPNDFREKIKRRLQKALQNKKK

B1: Suppressor of Hairy wing [Su(Hw)] (natural protein, UniProt P08970 1-941, looked up)
chain: MSASKEGKEKKGKLLGVENISPPKDKRPATRMKLLNDVGAGEDSEASTTTTTSRTPSNKQEKRGSVAGSRIKILNEEILGTPKTEKRGATKSTAPAASTVKILNEKKTPSATVTAVETTKIKTSPSKRKKMEHYVLQAVKSENTKADTTVTVVTEEDDTIDFILADDEEVVPGRIENNNGQEIVVTEDDEDLGEDGDEDGEDSSGKGNSSQTKIKEIVEHVCGKCYKTFRRVQSLKKHLEFCRYDSGYHLRKADMLKNLEKIEKDAVVMEKKDICFCCSESYDTFHLGHINCPDCPKSFKTQTSYERHIFITHSEFSDFPCSICNANLRSEALLALHEEQHKSRGKPYACKICGKDFTRSYHLKRHQKYSSCSSNETDTMSCKVCDRVFYRLDNLRSHLKQHLGTQVVKKPEYMCHTCKNCFYSLSTLNIHIRTHTGEKPFDCDLCDKKFSALVALKKHRRYHTGEKPYSCTVCNQAFAVKEVLNRHMKRHTGERPHKCDECGKSFIQATQLRTHSKTHIRPFPCEQCDEKFKTEKQLERHVKTHSRTKRPVFSCAECKRNFRTPALLKEHMDEGKHSPKQQRSSMRSAVKIMERTDCAICDKNFDSSDTLRRHIRTVHECDPDDIFGVEPHPSKRAKKDIESEEVVPVALNTSAGSLISSQTDGNGVVVREFLVDEGDGAAQTITLENETYTILPLDGAIEGEQLTDEAGVKPEAKKEEAQVSPVVKKEQRKSLAASLAAAIADNLEESCSEDDFSGEILTEEDIKLKENVGKLIDMLVDPPILKKYGWPNAPEETVLCKVIENCGHDLTKGGENYAELDYGSRMREYCKLLFTVVIHNDSIKSLLNNFPIDDVIEYVLGDEDQDEGGLDKDNESHSGDEEAVSVTGETKTNEIREKPEKKEVSAKSEKKEIVGKAVDKDNSEEVVRENKKKPVGEQEKA
notes: endogenous protein in embryonic nuclear extract; source: endogenous, nuclear extract of 0-24 h Drosophila embryos
Question: Which “percent of total protein immunoprecipitated with anti-M1BP” value [1] does the source give for B1 here?
Answer: 2.6%

Question: What about the “percent of total protein immunoprecipitated with anti-CP190” value [2] of the same binder?
Answer: 7%

Question: And the “percent of total protein immunoprecipitated with anti-Mod(mdg4)67.2” value [3]?
Answer: 8.5%
